Data reported in the supplement of paper PMC10567573.

B1: SCNN1D (parent)
chain: FYRLYQDLETHRLPCTSRCPRPCR

Variants of: B1
Assay: protein stability index of a GFP-peptide fusion (GPS, HEK-293T) (PSI 1-6); higher = more stable
Conditions: c terminus: a fixed tail appended
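Also: lentivirally expressed fusions sorted by FACS into six bins by GFP to DsRed ratio, PSI derived from sequencing read proportions per bin multiplied by bin number.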

For FNRLYQDLETHRLPCTSRCPRPCR [Y2N], which protein stability index is on record?
Its protein stability index is 3.63.

Which protein stability index does the source give for FPRLYQDLETHRLPCTSRCPRPCR [Y2P] here?
The protein stability index was 2.85.

With FQRLYQDLETHRLPCTSRCPRPCR [Y2Q] as the variant, how does the protein stability index read?
Its protein stability index is 1.98.

With FRRLYQDLETHRLPCTSRCPRPCR [Y2R] as the variant, how does the protein stability index read?
The protein stability index was 2.58.

For FSRLYQDLETHRLPCTSRCPRPCR [Y2S], which protein stability index is on record?
The protein stability index was 2.49.

With FTRLYQDLETHRLPCTSRCPRPCR [Y2T] as the variant, how does the protein stability index read?
The protein stability index was 1.81.

Which protein stability index does the source give for FVRLYQDLETHRLPCTSRCPRPCR [Y2V] here?
Its protein stability index is 2.97.

For FWRLYQDLETHRLPCTSRCPRPCR [Y2W], which protein stability index is on record?
Its protein stability index is 2.75.

For FYALYQDLETHRLPCTSRCPRPCR [R3A], which protein stability index is on record?
Its protein stability index is 2.32.

With FYCLYQDLETHRLPCTSRCPRPCR [R3C] as the variant, how does the protein stability index read?
Its protein stability index is 1.98.

With FYDLYQDLETHRLPCTSRCPRPCR [R3D] as the variant, how does the protein stability index read?
Its protein stability index is 2.71.

Which protein stability index does the source give for FYELYQDLETHRLPCTSRCPRPCR [R3E] here?
Its protein stability index is 2.63.

Which protein stability index does the source give for FYFLYQDLETHRLPCTSRCPRPCR [R3F] here?
Its protein stability index is 2.32.

Which protein stability index does the source give for FYGLYQDLETHRLPCTSRCPRPCR [R3G] here?
Its protein stability index is 2.65.

For FYHLYQDLETHRLPCTSRCPRPCR [R3H], which protein stability index is on record?
Its protein stability index is 2.38.

With FYILYQDLETHRLPCTSRCPRPCR [R3I] as the variant, how does the protein stability index read?
Its protein stability index is 1.95.

Which protein stability index does the source give for FYKLYQDLETHRLPCTSRCPRPCR [R3K] here?
The protein stability index was 2.58.

For FYLLYQDLETHRLPCTSRCPRPCR [R3L], which protein stability index is on record?
The protein stability index was 2.

For FYMLYQDLETHRLPCTSRCPRPCR [R3M], which protein stability index is on record?
Its protein stability index is 2.09.

Which protein stability index does the source give for FYNLYQDLETHRLPCTSRCPRPCR [R3N] here?
Its protein stability index is 2.22.

With FYPLYQDLETHRLPCTSRCPRPCR [R3P] as the variant, how does the protein stability index read?
The protein stability index was 3.04.

With FYQLYQDLETHRLPCTSRCPRPCR [R3Q] as the variant, how does the protein stability index read?
Its protein stability index is 2.71.

Which protein stability index does the source give for FYSLYQDLETHRLPCTSRCPRPCR [R3S] here?
The protein stability index was 2.42.

With FYTLYQDLETHRLPCTSRCPRPCR [R3T] as the variant, how does the protein stability index read?
The protein stability index was 2.65.

Which protein stability index does the source give for FYVLYQDLETHRLPCTSRCPRPCR [R3V] here?
The protein stability index was 2.04.

With FYYLYQDLETHRLPCTSRCPRPCR [R3Y] as the variant, how does the protein stability index read?
Its protein stability index is 1.66.

With FYRAYQDLETHRLPCTSRCPRPCR [L4A] as the variant, how does the protein stability index read?
The protein stability index was 3.02.

With FYRCYQDLETHRLPCTSRCPRPCR [L4C] as the variant, how does the protein stability index read?
Its protein stability index is 1.56.

With FYRDYQDLETHRLPCTSRCPRPCR [L4D] as the variant, how does the protein stability index read?
The protein stability index was 2.69.

Which protein stability index does the source give for FYREYQDLETHRLPCTSRCPRPCR [L4E] here?
The protein stability index was 4.13.

For FYRFYQDLETHRLPCTSRCPRPCR [L4F], which protein stability index is on record?
Its protein stability index is 2.04.

Which protein stability index does the source give for FYRGYQDLETHRLPCTSRCPRPCR [L4G] here?
The protein stability index was 3.51.

With FYRHYQDLETHRLPCTSRCPRPCR [L4H] as the variant, how does the protein stability index read?
The protein stability index was 3.23.

With FYRIYQDLETHRLPCTSRCPRPCR [L4I] as the variant, how does the protein stability index read?
Its protein stability index is 2.41.

For FYRKYQDLETHRLPCTSRCPRPCR [L4K], which protein stability index is on record?
The protein stability index was 3.68.

Which protein stability index does the source give for FYRMYQDLETHRLPCTSRCPRPCR [L4M] here?
Its protein stability index is 2.34.

For FYRNYQDLETHRLPCTSRCPRPCR [L4N], which protein stability index is on record?
Its protein stability index is 3.29.

With FYRPYQDLETHRLPCTSRCPRPCR [L4P] as the variant, how does the protein stability index read?
The protein stability index was 3.47.

Which protein stability index does the source give for FYRQYQDLETHRLPCTSRCPRPCR [L4Q] here?
Its protein stability index is 3.24.

Which protein stability index does the source give for FYRRYQDLETHRLPCTSRCPRPCR [L4R] here?
Its protein stability index is 2.49.

With FYRSYQDLETHRLPCTSRCPRPCR [L4S] as the variant, how does the protein stability index read?
Its protein stability index is 3.46.

Which protein stability index does the source give for FYRTYQDLETHRLPCTSRCPRPCR [L4T] here?
Its protein stability index is 2.79.

With FYRWYQDLETHRLPCTSRCPRPCR [L4W] as the variant, how does the protein stability index read?
The protein stability index was 2.59.

Which protein stability index does the source give for FYRYYQDLETHRLPCTSRCPRPCR [L4Y] here?
The protein stability index was 2.14.

With FYRLAQDLETHRLPCTSRCPRPCR [Y5A] as the variant, how does the protein stability index read?
Its protein stability index is 4.45.

For FYRLCQDLETHRLPCTSRCPRPCR [Y5C], which protein stability index is on record?
Its protein stability index is 2.13.

Which protein stability index does the source give for FYRLDQDLETHRLPCTSRCPRPCR [Y5D] here?
The protein stability index was 3.64.

With FYRLEQDLETHRLPCTSRCPRPCR [Y5E] as the variant, how does the protein stability index read?
Its protein stability index is 3.17.

For FYRLFQDLETHRLPCTSRCPRPCR [Y5F], which protein stability index is on record?
Its protein stability index is 1.98.

Which protein stability index does the source give for FYRLGQDLETHRLPCTSRCPRPCR [Y5G] here?
Its protein stability index is 3.16.

For FYRLHQDLETHRLPCTSRCPRPCR [Y5H], which protein stability index is on record?
The protein stability index was 2.92.

Which protein stability index does the source give for FYRLIQDLETHRLPCTSRCPRPCR [Y5I] here?
The protein stability index was 1.76.

With FYRLKQDLETHRLPCTSRCPRPCR [Y5K] as the variant, how does the protein stability index read?
Its protein stability index is 2.6.

With FYRLLQDLETHRLPCTSRCPRPCR [Y5L] as the variant, how does the protein stability index read?
The protein stability index was 3.17.

Which protein stability index does the source give for FYRLMQDLETHRLPCTSRCPRPCR [Y5M] here?
Its protein stability index is 2.29.

With FYRLNQDLETHRLPCTSRCPRPCR [Y5N] as the variant, how does the protein stability index read?
Its protein stability index is 3.29.

For FYRLPQDLETHRLPCTSRCPRPCR [Y5P], which protein stability index is on record?
The protein stability index was 3.49.

For FYRLQQDLETHRLPCTSRCPRPCR [Y5Q], which protein stability index is on record?
The protein stability index was 2.81.

For FYRLRQDLETHRLPCTSRCPRPCR [Y5R], which protein stability index is on record?
The protein stability index was 2.02.

Which protein stability index does the source give for FYRLSQDLETHRLPCTSRCPRPCR [Y5S] here?
Its protein stability index is 2.57.

Which protein stability index does the source give for FYRLTQDLETHRLPCTSRCPRPCR [Y5T] here?
The protein stability index was 2.8.

With FYRLVQDLETHRLPCTSRCPRPCR [Y5V] as the variant, how does the protein stability index read?
Its protein stability index is 1.88.

Which protein stability index does the source give for FYRLWQDLETHRLPCTSRCPRPCR [Y5W] here?
Its protein stability index is 2.08.

Which protein stability index does the source give for FYRLYADLETHRLPCTSRCPRPCR [Q6A] here?
Its protein stability index is 2.21.

Which protein stability index does the source give for FYRLYCDLETHRLPCTSRCPRPCR [Q6C] here?
Its protein stability index is 1.68.

For FYRLYDDLETHRLPCTSRCPRPCR [Q6D], which protein stability index is on record?
Its protein stability index is 2.52.

With FYRLYEDLETHRLPCTSRCPRPCR [Q6E] as the variant, how does the protein stability index read?
Its protein stability index is 3.63.

With FYRLYFDLETHRLPCTSRCPRPCR [Q6F] as the variant, how does the protein stability index read?
The protein stability index was 1.79.

Which protein stability index does the source give for FYRLYGDLETHRLPCTSRCPRPCR [Q6G] here?
The protein stability index was 1.7.

With FYRLYHDLETHRLPCTSRCPRPCR [Q6H] as the variant, how does the protein stability index read?
Its protein stability index is 1.96.

With FYRLYIDLETHRLPCTSRCPRPCR [Q6I] as the variant, how does the protein stability index read?
The protein stability index was 2.31.

Which protein stability index does the source give for FYRLYKDLETHRLPCTSRCPRPCR [Q6K] here?
Its protein stability index is 1.35.

Which protein stability index does the source give for FYRLYLDLETHRLPCTSRCPRPCR [Q6L] here?
The protein stability index was 1.54.

For FYRLYMDLETHRLPCTSRCPRPCR [Q6M], which protein stability index is on record?
The protein stability index was 1.91.

With FYRLYNDLETHRLPCTSRCPRPCR [Q6N] as the variant, how does the protein stability index read?
Its protein stability index is 2.28.

With FYRLYPDLETHRLPCTSRCPRPCR [Q6P] as the variant, how does the protein stability index read?
Its protein stability index is 1.38.

For FYRLYRDLETHRLPCTSRCPRPCR [Q6R], which protein stability index is on record?
Its protein stability index is 1.96.

With FYRLYSDLETHRLPCTSRCPRPCR [Q6S] as the variant, how does the protein stability index read?
The protein stability index was 2.23.

With FYRLYTDLETHRLPCTSRCPRPCR [Q6T] as the variant, how does the protein stability index read?
Its protein stability index is 1.72.

For FYRLYVDLETHRLPCTSRCPRPCR [Q6V], which protein stability index is on record?
Its protein stability index is 1.65.

Which protein stability index does the source give for FYRLYWDLETHRLPCTSRCPRPCR [Q6W] here?
Its protein stability index is 3.33.

For FYRLYYDLETHRLPCTSRCPRPCR [Q6Y], which protein stability index is on record?
Its protein stability index is 1.52.

Which protein stability index does the source give for FYRLYQALETHRLPCTSRCPRPCR [D7A] here?
Its protein stability index is 1.32.

With FYRLYQCLETHRLPCTSRCPRPCR [D7C] as the variant, how does the protein stability index read?
The protein stability index was 1.72.

With FYRLYQELETHRLPCTSRCPRPCR [D7E] as the variant, how does the protein stability index read?
The protein stability index was 2.3.

For FYRLYQFLETHRLPCTSRCPRPCR [D7F], which protein stability index is on record?
Its protein stability index is 2.22.

Which protein stability index does the source give for FYRLYQGLETHRLPCTSRCPRPCR [D7G] here?
The protein stability index was 2.3.

With FYRLYQHLETHRLPCTSRCPRPCR [D7H] as the variant, how does the protein stability index read?
The protein stability index was 1.5.

With FYRLYQILETHRLPCTSRCPRPCR [D7I] as the variant, how does the protein stability index read?
Its protein stability index is 3.21.

Which protein stability index does the source give for FYRLYQKLETHRLPCTSRCPRPCR [D7K] here?
Its protein stability index is 2.08.

For FYRLYQLLETHRLPCTSRCPRPCR [D7L], which protein stability index is on record?
The protein stability index was 1.76.

For FYRLYQMLETHRLPCTSRCPRPCR [D7M], which protein stability index is on record?
Its protein stability index is 1.39.

Which protein stability index does the source give for FYRLYQNLETHRLPCTSRCPRPCR [D7N] here?
Its protein stability index is 1.89.

With FYRLYQPLETHRLPCTSRCPRPCR [D7P] as the variant, how does the protein stability index read?
Its protein stability index is 2.44.
